Positions count from the first letter of the chain named. Blank lines part the entries; values can stand above or below the binder they belong to.
Target: human antithrombin β complexed with heparin (human ATβH) (human, UniProt P01008 33-464, lacks glycosylation at Asn135 (β glyco-isoform); complexed with heparin)
Assay: Biacore

Sequence of human antithrombin β complexed with heparin (human ATβH) (P01008 33-464, one chain of several): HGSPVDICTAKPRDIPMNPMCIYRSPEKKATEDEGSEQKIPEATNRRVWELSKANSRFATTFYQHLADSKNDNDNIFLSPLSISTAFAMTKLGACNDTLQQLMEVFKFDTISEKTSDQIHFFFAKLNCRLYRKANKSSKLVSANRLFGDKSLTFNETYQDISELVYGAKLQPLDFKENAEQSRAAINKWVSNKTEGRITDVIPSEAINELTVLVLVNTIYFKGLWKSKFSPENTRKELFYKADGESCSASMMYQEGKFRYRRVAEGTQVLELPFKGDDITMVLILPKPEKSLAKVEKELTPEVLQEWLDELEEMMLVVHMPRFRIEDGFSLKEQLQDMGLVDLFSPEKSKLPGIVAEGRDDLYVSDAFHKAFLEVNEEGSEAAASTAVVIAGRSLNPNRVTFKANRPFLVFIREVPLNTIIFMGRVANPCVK

Kd: 17.2 nM
B1: TPP-2019 hIgG (antibody, V domains shown)
VH: EVQLLESGGGLVQPGGSLRLSCAASGFTFSRYAMYWVRQAPGKGLEWVSRISPSGGKTHYADSVKGRFTISRDNSKNTLYLQMNSLRAEDTAVYYCARLSQTGYYPHYHYYGMDVWGQGTTVTVSS
VL: DIQMTQSPATLSLSPGERATLSCRASQRVSSSYLTWYQQKPGQAPRLLIYGASSRATGIPDRFSGSGSGTDFTLTISRLEPEDFAVYYCQQYDSTPPLTFGGGTKVEIKR

Kd: 11.9 nM
B2: TPP2009 hIgG1 (antibody, V domains shown)
VH: EVQLLESGGGLVQPGGSLRLSCAASGFTFSAYRMGWVRQAPGKGLEWVSRIYSSGGRTRYADSVKGRFTISRDNSKNTLYLQMNSLRAEDTAVYYCAREKASDLSGSFSEALDYWGQGTLVTVSS
VL: AQSVLTQDPAVSVALGQTVRITCQGDSLRSYYASWYQQKPGQAPVLVIYGKNNRPSGIPDRFSGSSSGNTASLTITGAQAEDEADYYCNSRDSSGNHLVFGGGTKLTVLG

Kd: 18.9 nM
B3: TPP-2016 hIgG (antibody, V domains shown)
VH: B2 VH with A31K, G35D, Y52G, S53P, R57K, R59T, A101T, F108Y
VL: DIQMTQSPATLSVSPGERATLSCRASQNINRNLAWYQQKPGRAPRLLIHTASTRAPGVPVRITGSGSGTEFTLTISSLEPEDFAVYFCQQYASPPRTFGQGTKVEIKR

From patent US20140271661A1 (published 2014)
